The values that follow come from article PMC9088798, “An Approach to Derive Functional Peptide Inhibitors of Transcription Factor Activity” (JACS Au, 2022).

Assay [1] deals with cJun bZIP domain (UniProt P05412). The experiment in a line: circular dichroism thermal denaturation; loss of CD signal at 222 nm with temperature; total peptide 10 μM, equimolar components.
The target is the same in assay [2].
For assay [3] the target is unchanged. Nature of the assay: circular dichroism spectra; CD spectra at 20 °C; heterodimeric sample compared with the average of the component spectra; total peptide 10 μM, equimolar components.
Assay [4] has the same target. This is another data set of the same source.
The target is the same in assay [5]. The experiment in a line: ITC; antagonist peptide injected into cJun; single-site binding model.
For assay [6] the target is unchanged. The source holds these as a separate data set.

Chain of cJun bZIP domain (P05412 252-315): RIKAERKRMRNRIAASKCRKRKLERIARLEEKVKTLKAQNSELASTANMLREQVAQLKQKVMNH

Regarding A-FosW (designed binder), in the assay with cJun bZIP domain [1], the Tm of the heterodimer was determined as 69.9 °C and the ΔTm of the heterodimer against the average of the component denaturation profiles came to 27.5 °C. In the assay with cJun bZIP domain [2], this substance yielded a TBS assay in E. coli: colony numbers relative to TRE-mDHFR only (removal of the cJun transcriptional block) of 60%. The increase in α-helical content over the average of the component spectra in the assay with cJun bZIP domain [3] came out at 39%. For the same substance, the IC50 of restoration of the free TRE DNA band in EMSA (cJun bZIP 20 μM, TRE DNA 2 μM); blocks cJun binding to TRE DNA in the assay with cJun bZIP domain [4] was found to be 12.1 µM. Besides, in the assay with cJun bZIP domain [5], the Kd stood at 0.0883 µM, the dH was -36.5 kcal/mol and the stoichiometry N stood at 1.04. The IC50 of reversal of the TRE DNA CD peak shift at ~281 nm (cJun 20 μM, TRE DNA 5 μM); blocks cJun binding to TRE DNA with cJun bZIP domain [6] was 16 µM.
On to FosW (designed binder), for which, in the assay with cJun bZIP domain [1], the Tm of the heterodimer turned out to be 54 °C. The IC50 of reversal of the TRE DNA CD peak shift at ~281 nm; blocks cJun binding to TRE DNA with cJun bZIP domain [6] was 120 µM.
